Data as given in patent US20150307627A1.
Substitutions are numbered along the chain they refer to. Each block holds one binder with its values, some of them ahead of it.

Target: Human IgG
Test: method not given

Ka: > 4e+09 M⁻¹
B1: IgG-Fc-14 (VHH)
VHH: QVQLQESGGGLVQTGGSLRLSCSASGGTFETYAMGWFRQAPGKEREFVGSTNWKSERTYVADSVKGRFTISRDNGQYTAYLQMTSLKPEDTAVYFCVARSFGTGQWDYWGQGTQVTVSS

Ka: > 4e+09 M⁻¹
B2: IgG-Fc-13 (VHH)
VHH: QVQLQESGGGLVQAGGSLRLSCAASGDTFSTYAMGWFRQAPGKEREFVGRIVRGTESTYLIDSVKGRFAISRDNAQNTVYLQMTSLKPEDTAVYFCVARSFGAGQWDYWGQGTQVTVSS

Ka: > 4e+09 M⁻¹
B3: IgG-Fc-15 (VHH)
VHH: QVQLQESGGGLVQAGGSLRLSCAVSGRGFSTYAMGWFRQAPGKEREFVGSANWKSGSIYVADSVKGRFTISNDNAQNTVYLQMSSLKPEDTAVYYCVARSFGTGQWDYWGQGTQVTVSS

Ka: > 4e+09 M⁻¹
B4: IgG-Fc-11 (VHH)
VHH: QVQLQESGGGLVQAGGSLRLSCAVSGRTFSTYAMGWFRQAPGKEREFVGSANWKSGSTYLVDSVKGRFTISGDNAHDTVHLQMTSLKPEDTGVYFCVARSFGTGQWDYWGQGTQVTVSS

Ka: > 4e+09 M⁻¹
B5: IgG-Fc-12 (VHH)
VHH: B3 VHH with G28T, A51I, W53F, V60L, N72G, V79A, S84T, Y95L
